This is an account of results in US20210388087A1 (Chugai, published 2021).

To fix the notation:
B1: dBBDu183H V100cG/dBBDu072L (antibody, name in Kabat numbering, V domains shown)
VH: QVQLVESGGGLVQPGRSLRLSCAASGFTFSNAWMHWVRQAPGKGLEWVAQIKDKGNAYAAYYAPSVKGRFTISRDDSKNSIYLQMNSLKTEDTAVYYCHYVHYASASTGLPAFGVDAWGQGTTVTVSS
VL: DIVMTQSPLSLPVTPGEPASISCQASQELVHMNRNTYLHWYQQKPGQAPRLLIYKVSNRFPGVPDRFSGSGSGTDFTLKISRVEAEDVGVYYCAQGTSVPFTFGQGTKLEIK
B2: dBBDu183H V100cW/dBBDu072L (antibody, name in Kabat numbering, V domains shown)
VH: QVQLVESGGGLVQPGRSLRLSCAASGFTFSNAWMHWVRQAPGKGLEWVAQIKDKGNAYAAYYAPSVKGRFTISRDDSKNSIYLQMNSLKTEDTAVYYCHYVHYASASTWLPAFGVDAWGQGTTVTVSS
VL: DIVMTQSPLSLPVTPGEPASISCQASQELVHMNRNTYLHWYQQKPGQAPRLLIYKVSNRFPGVPDRFSGSGSGTDFTLKISRVEAEDVGVYYCAQGTSVPFTFGQGTKLEIK
B3: dBBDu183H V100iR/dBBDu072L (antibody, name in Kabat numbering, V domains shown)
VH: QVQLVESGGGLVQPGRSLRLSCAASGFTFSNAWMHWVRQAPGKGLEWVAQIKDKGNAYAAYYAPSVKGRFTISRDDSKNSIYLQMNSLKTEDTAVYYCHYVHYASASTVLPAFGRDAWGQGTTVTVSS
VL: DIVMTQSPLSLPVTPGEPASISCQASQELVHMNRNTYLHWYQQKPGQAPRLLIYKVSNRFPGVPDRFSGSGSGTDFTLKISRVEAEDVGVYYCAQGTSVPFTFGQGTKLEIK
B4: dBBDu183H V100cR/dBBDu072L (antibody, name in Kabat numbering, V domains shown)
VH: QVQLVESGGGLVQPGRSLRLSCAASGFTFSNAWMHWVRQAPGKGLEWVAQIKDKGNAYAAYYAPSVKGRFTISRDDSKNSIYLQMNSLKTEDTAVYYCHYVHYASASTRLPAFGVDAWGQGTTVTVSS
VL: DIVMTQSPLSLPVTPGEPASISCQASQELVHMNRNTYLHWYQQKPGQAPRLLIYKVSNRFPGVPDRFSGSGSGTDFTLKISRVEAEDVGVYYCAQGTSVPFTFGQGTKLEIK
B5: dBBDu183H V100iE/dBBDu072L (antibody, name in Kabat numbering, V domains shown)
VH: QVQLVESGGGLVQPGRSLRLSCAASGFTFSNAWMHWVRQAPGKGLEWVAQIKDKGNAYAAYYAPSVKGRFTISRDDSKNSIYLQMNSLKTEDTAVYYCHYVHYASASTVLPAFGEDAWGQGTTVTVSS
VL: DIVMTQSPLSLPVTPGEPASISCQASQELVHMNRNTYLHWYQQKPGQAPRLLIYKVSNRFPGVPDRFSGSGSGTDFTLKISRVEAEDVGVYYCAQGTSVPFTFGQGTKLEIK
B6: dBBDu183H V100cN/dBBDu072L (antibody, name in Kabat numbering, V domains shown)
VH: QVQLVESGGGLVQPGRSLRLSCAASGFTFSNAWMHWVRQAPGKGLEWVAQIKDKGNAYAAYYAPSVKGRFTISRDDSKNSIYLQMNSLKTEDTAVYYCHYVHYASASTNLPAFGVDAWGQGTTVTVSS
VL: DIVMTQSPLSLPVTPGEPASISCQASQELVHMNRNTYLHWYQQKPGQAPRLLIYKVSNRFPGVPDRFSGSGSGTDFTLKISRVEAEDVGVYYCAQGTSVPFTFGQGTKLEIK
B7: dBBDu183H V100iN/dBBDu072L (antibody, name in Kabat numbering, V domains shown)
VH: QVQLVESGGGLVQPGRSLRLSCAASGFTFSNAWMHWVRQAPGKGLEWVAQIKDKGNAYAAYYAPSVKGRFTISRDDSKNSIYLQMNSLKTEDTAVYYCHYVHYASASTVLPAFGNDAWGQGTTVTVSS
VL: DIVMTQSPLSLPVTPGEPASISCQASQELVHMNRNTYLHWYQQKPGQAPRLLIYKVSNRFPGVPDRFSGSGSGTDFTLKISRVEAEDVGVYYCAQGTSVPFTFGQGTKLEIK
B8: dBBDu183H V100iG/dBBDu072L (antibody, name in Kabat numbering, V domains shown)
VH: QVQLVESGGGLVQPGRSLRLSCAASGFTFSNAWMHWVRQAPGKGLEWVAQIKDKGNAYAAYYAPSVKGRFTISRDDSKNSIYLQMNSLKTEDTAVYYCHYVHYASASTVLPAFGGDAWGQGTTVTVSS
VL: DIVMTQSPLSLPVTPGEPASISCQASQELVHMNRNTYLHWYQQKPGQAPRLLIYKVSNRFPGVPDRFSGSGSGTDFTLKISRVEAEDVGVYYCAQGTSVPFTFGQGTKLEIK
B9: dBBDu183H V100cQ/dBBDu072L (antibody, name in Kabat numbering, V domains shown)
VH: QVQLVESGGGLVQPGRSLRLSCAASGFTFSNAWMHWVRQAPGKGLEWVAQIKDKGNAYAAYYAPSVKGRFTISRDDSKNSIYLQMNSLKTEDTAVYYCHYVHYASASTQLPAFGVDAWGQGTTVTVSS
VL: DIVMTQSPLSLPVTPGEPASISCQASQELVHMNRNTYLHWYQQKPGQAPRLLIYKVSNRFPGVPDRFSGSGSGTDFTLKISRVEAEDVGVYYCAQGTSVPFTFGQGTKLEIK
B10: dBBDu183H V100cT/dBBDu072L (antibody, name in Kabat numbering, V domains shown)
VH: QVQLVESGGGLVQPGRSLRLSCAASGFTFSNAWMHWVRQAPGKGLEWVAQIKDKGNAYAAYYAPSVKGRFTISRDDSKNSIYLQMNSLKTEDTAVYYCHYVHYASASTTLPAFGVDAWGQGTTVTVSS
VL: DIVMTQSPLSLPVTPGEPASISCQASQELVHMNRNTYLHWYQQKPGQAPRLLIYKVSNRFPGVPDRFSGSGSGTDFTLKISRVEAEDVGVYYCAQGTSVPFTFGQGTKLEIK
B11: dBBDu183H V100cS/dBBDu072L (antibody, name in Kabat numbering, V domains shown)
VH: QVQLVESGGGLVQPGRSLRLSCAASGFTFSNAWMHWVRQAPGKGLEWVAQIKDKGNAYAAYYAPSVKGRFTISRDDSKNSIYLQMNSLKTEDTAVYYCHYVHYASASTSLPAFGVDAWGQGTTVTVSS
VL: DIVMTQSPLSLPVTPGEPASISCQASQELVHMNRNTYLHWYQQKPGQAPRLLIYKVSNRFPGVPDRFSGSGSGTDFTLKISRVEAEDVGVYYCAQGTSVPFTFGQGTKLEIK
B12: dBBDu183H V100iH/dBBDu072L (antibody, name in Kabat numbering, V domains shown)
VH: QVQLVESGGGLVQPGRSLRLSCAASGFTFSNAWMHWVRQAPGKGLEWVAQIKDKGNAYAAYYAPSVKGRFTISRDDSKNSIYLQMNSLKTEDTAVYYCHYVHYASASTVLPAFGHDAWGQGTTVTVSS
VL: DIVMTQSPLSLPVTPGEPASISCQASQELVHMNRNTYLHWYQQKPGQAPRLLIYKVSNRFPGVPDRFSGSGSGTDFTLKISRVEAEDVGVYYCAQGTSVPFTFGQGTKLEIK
B13: dBBDu183H V100cK/dBBDu072L (antibody, name in Kabat numbering, V domains shown)
VH: QVQLVESGGGLVQPGRSLRLSCAASGFTFSNAWMHWVRQAPGKGLEWVAQIKDKGNAYAAYYAPSVKGRFTISRDDSKNSIYLQMNSLKTEDTAVYYCHYVHYASASTKLPAFGVDAWGQGTTVTVSS
VL: DIVMTQSPLSLPVTPGEPASISCQASQELVHMNRNTYLHWYQQKPGQAPRLLIYKVSNRFPGVPDRFSGSGSGTDFTLKISRVEAEDVGVYYCAQGTSVPFTFGQGTKLEIK
B14: dBBDu183H V100iF/dBBDu072L (antibody, name in Kabat numbering, V domains shown)
VH: QVQLVESGGGLVQPGRSLRLSCAASGFTFSNAWMHWVRQAPGKGLEWVAQIKDKGNAYAAYYAPSVKGRFTISRDDSKNSIYLQMNSLKTEDTAVYYCHYVHYASASTVLPAFGFDAWGQGTTVTVSS
VL: DIVMTQSPLSLPVTPGEPASISCQASQELVHMNRNTYLHWYQQKPGQAPRLLIYKVSNRFPGVPDRFSGSGSGTDFTLKISRVEAEDVGVYYCAQGTSVPFTFGQGTKLEIK
B15: dBBDu183H V100iQ/dBBDu072L (antibody, name in Kabat numbering, V domains shown)
VH: QVQLVESGGGLVQPGRSLRLSCAASGFTFSNAWMHWVRQAPGKGLEWVAQIKDKGNAYAAYYAPSVKGRFTISRDDSKNSIYLQMNSLKTEDTAVYYCHYVHYASASTVLPAFGQDAWGQGTTVTVSS
VL: DIVMTQSPLSLPVTPGEPASISCQASQELVHMNRNTYLHWYQQKPGQAPRLLIYKVSNRFPGVPDRFSGSGSGTDFTLKISRVEAEDVGVYYCAQGTSVPFTFGQGTKLEIK
B16: dBBDu183H V100iS/dBBDu072L (antibody, name in Kabat numbering, V domains shown)
VH: QVQLVESGGGLVQPGRSLRLSCAASGFTFSNAWMHWVRQAPGKGLEWVAQIKDKGNAYAAYYAPSVKGRFTISRDDSKNSIYLQMNSLKTEDTAVYYCHYVHYASASTVLPAFGSDAWGQGTTVTVSS
VL: DIVMTQSPLSLPVTPGEPASISCQASQELVHMNRNTYLHWYQQKPGQAPRLLIYKVSNRFPGVPDRFSGSGSGTDFTLKISRVEAEDVGVYYCAQGTSVPFTFGQGTKLEIK
B17: dBBDu183H V100iD/dBBDu072L (antibody, name in Kabat numbering, V domains shown)
VH: QVQLVESGGGLVQPGRSLRLSCAASGFTFSNAWMHWVRQAPGKGLEWVAQIKDKGNAYAAYYAPSVKGRFTISRDDSKNSIYLQMNSLKTEDTAVYYCHYVHYASASTVLPAFGDDAWGQGTTVTVSS
VL: DIVMTQSPLSLPVTPGEPASISCQASQELVHMNRNTYLHWYQQKPGQAPRLLIYKVSNRFPGVPDRFSGSGSGTDFTLKISRVEAEDVGVYYCAQGTSVPFTFGQGTKLEIK
B18: dBBDu183H V100cH/dBBDu072L (antibody, name in Kabat numbering, V domains shown)
VH: QVQLVESGGGLVQPGRSLRLSCAASGFTFSNAWMHWVRQAPGKGLEWVAQIKDKGNAYAAYYAPSVKGRFTISRDDSKNSIYLQMNSLKTEDTAVYYCHYVHYASASTHLPAFGVDAWGQGTTVTVSS
VL: DIVMTQSPLSLPVTPGEPASISCQASQELVHMNRNTYLHWYQQKPGQAPRLLIYKVSNRFPGVPDRFSGSGSGTDFTLKISRVEAEDVGVYYCAQGTSVPFTFGQGTKLEIK
B19: dBBDu183H V100iK/dBBDu072L (antibody, name in Kabat numbering, V domains shown)
VH: QVQLVESGGGLVQPGRSLRLSCAASGFTFSNAWMHWVRQAPGKGLEWVAQIKDKGNAYAAYYAPSVKGRFTISRDDSKNSIYLQMNSLKTEDTAVYYCHYVHYASASTVLPAFGKDAWGQGTTVTVSS
VL: DIVMTQSPLSLPVTPGEPASISCQASQELVHMNRNTYLHWYQQKPGQAPRLLIYKVSNRFPGVPDRFSGSGSGTDFTLKISRVEAEDVGVYYCAQGTSVPFTFGQGTKLEIK
B20: dBBDu183H V100cY/dBBDu072L (antibody, name in Kabat numbering, V domains shown)
VH: QVQLVESGGGLVQPGRSLRLSCAASGFTFSNAWMHWVRQAPGKGLEWVAQIKDKGNAYAAYYAPSVKGRFTISRDDSKNSIYLQMNSLKTEDTAVYYCHYVHYASASTYLPAFGVDAWGQGTTVTVSS
VL: DIVMTQSPLSLPVTPGEPASISCQASQELVHMNRNTYLHWYQQKPGQAPRLLIYKVSNRFPGVPDRFSGSGSGTDFTLKISRVEAEDVGVYYCAQGTSVPFTFGQGTKLEIK

This experiment addresses T1, Human CD3eg linker (human).
T1 construct: single-chain construct; also called recombinant human CD3
T1 chain: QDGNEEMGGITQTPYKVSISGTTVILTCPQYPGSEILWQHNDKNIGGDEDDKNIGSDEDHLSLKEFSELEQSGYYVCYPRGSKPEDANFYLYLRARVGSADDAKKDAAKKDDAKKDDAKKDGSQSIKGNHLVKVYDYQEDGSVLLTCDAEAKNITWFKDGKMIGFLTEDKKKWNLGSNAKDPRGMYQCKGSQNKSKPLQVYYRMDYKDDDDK
Put plainly: SPR, vs unmutated H183/L072. (In general: In SPR one partner is held on a chip, and binding of the other changes the refractive index at the surface.)
As for B1, the “fold change of affinity” value was determined as 1.5 fold.

For the molecule B2, the “fold change of affinity” value stood at 1.5 fold.

Take B3: the “fold change of affinity” value turned out to be 4 fold.

For the molecule B4, the “fold change of affinity” value was 1.5 fold.

For the molecule B5, the “fold change of affinity” value came to 1.4 fold.

In the case of B6, the “fold change of affinity” value was determined as 1 fold.

Turning to B7, the “fold change of affinity” value was 5 fold.

Consider B8, for which the “fold change of affinity” value is 1.8 fold.

Regarding B9, the “fold change of affinity” value is 1.4 fold.

Turning to B10, the “fold change of affinity” value was found to be 1 fold.

As to B11, the “fold change of affinity” value is 1.1 fold.

Turning to B12, the “fold change of affinity” value stood at 2.2 fold.

On to B13, for which the “fold change of affinity” value is 1.2 fold.

For B14, the “fold change of affinity” value is 3.2 fold.

For B15, the “fold change of affinity” value was found to be 3.6 fold.

In the case of B16, the “fold change of affinity” value is 1.9 fold.

Turning to B17, the “fold change of affinity” value is 2.4 fold.

For B18, the “fold change of affinity” value was 1.2 fold.

Regarding B19, the “fold change of affinity” value came out at 2.4 fold.

Consider B20, for which the “fold change of affinity” value came to 1.3 fold.
